# Assay: soluble on expression in E. coli; label from the status in PepcDB or PDB records
row,Sequence,soluble on expression in E. coli
1,MGSDKIHHHHHHMKNSPLNGLNGLKAFLETKPKEYHKFDPSRFIQIYKDFKNAFFEIQAKVIHVVGTNGKGSTGRFLTLLLADQNFKVLHFTSPHVFEFRERFFLNGSVVGESVLENAHQQLQSHAFSSACSYFEYATLLAVMLAKDCDYLVLEAGLGGEFDSTNALKKTLSVFTPIDYDHKEFLGDSLESIAQTKLKAMGSLSIIAPQQELVLNAAQKIAKEKHAKLIVVQNEISKGVRDYIERYHLARFLAMNLEVALKAFETLLPCNKQEVLKNLKPLNLIGRCELLSPNILIDVGHNPHSAKALKEEIKRIFNAKIILIYNCYQDKDAFLVLEILKPVIKKVLILELHEERVIKLEKLKGILETLGLEYALFEDVEENENYLVYGSFLVANAFYKRYQEKRD,not soluble
2,MFIPQIVPIRDLKNTSAISNLCHKTNEPIFITKNGYGDMVIMSMETYEGNAFFNNLYGNLEEAEMDLQNGRVSGIDEAIEEIKSRYDLEHHHHHH,not soluble
3,MITIRNKIGQMLIMGFHGSELHDNSPVAQWLSNDGLGGVLLFDKDLSTGIYGKNLRNQAQIKQLIRQLNRYASMISGGNDNLPLFTAIDYEGGVVDRLSKIEGCPPTMKARELAKLSSDDFDEEVTQMAMTLQSLGFNLNFAPVVDLNLNAHAGIIGNLGRSFSSNPEVTIRLAKQFVDVFSRYGIACAYKHFPGHGSATGDTHEGFVDVTETFQTDELIPYRSLLKDLSNPFMVMTAHVINKHLDSKGLPATLSYDVLTLLLRQSIGYDGVIISDDLQMHAISNHYSLEDALCLTINAGADMVIFANQLGTITPPEVIDVIEKLVIDKQIPYQRIDEAYRRIVRLKQQIICSELINT,not soluble
4,MSLSNTSASFGFKDVDASLKAGLVRGVFDRVAKNYDIMNDLMSGGVHRLWKDAVAARLNPQPGEVIIDCAGGTGDMARRFAKMARKAQERRGGPDATINIVDYNAEMIMAGIERGGEPEITWTVGDAQRLPLPDAYADAYVISFGIRNVTDINAALREARRVLKPGGRFLCLEFSRPVTEPLAKAYDAYSFKVIPQVGEWVAKDRDAYQYLVESIRRFPDQRTFAGMIEAAGFKRVTFTNFTGGVAALHQGWAIEGHHHHHH,not soluble
5,MGSDKIHHHHHHMKIALIIENSQAAKNAVVHEALTTVAEPLGHKVFNYGMYTAEDKASLTYVMNGLLAGILLNSGAADFVVTGCGTGMGSMLAANAMPGVFCGLVIDPTDAFLFGQINDGNAISMPYSKGFGWAAELNLQDVYRKLFDGERGLGYPRERAEIMRKNRGILRELKDASCRDMLTVLKTVDQDLLRAAIAGEKFAELFYPNCKDDAIANYLRSLDA,not soluble
6,MHFADPREAREFLAAHPEVRSIELFLIDANGVPRGKLLHRDELLAVYESGRPLPSTILGLTINGDDVEETGLVWDVGDADCWTFPLPGSLTLQPWRQSPTGQVQVSMHPELGLPAAAGDPRHVLQRVIHSLQAEGFHPVMAVELEFYLLDRERDSDGRPLPALQMNGQRPRATQVYGVYELEQLQPFLDDLYAACEAQGLPARTAISEYAPGQVEITLQHRFDTLQAIDEGVRYKRLVKGVANRHGLQACFMAKPFADLSGSGLHLHVSLADAAGNNLFASEDPAGTPLLRQAIGGMKACLLESLALFCPNANSFRRFQANSYAPLAPTWGINNRTVSLRVPGGPASSRHIEHRICGADANPYLAAAALLAAVRLGIRERLDPGAPITGNGYAQATQALPSDWLTALRALEGSAWAREALGEDFLKIYLAIKQAEYRAFMGEVGE,not soluble
7,MRATEDHTIFDRGVGQRDQLQRLWTPYRMNYLAEAPVKRDPNSSASPAQPFTEIPQLSDEEGLVVARGKLVYAVLNLYPYNPGHLMVVPYRRVSELEDLTDLESAELMAFTQKAIRVIKNVSRPHGFNVGLNLGTSAGGSLAEHLHVHVVPRWGGDANFITIIGGSKLEHHHHHH,not soluble
8,GEYKMILVVRNDLKMGKGKVAAQCSHAAVSAYKQIQRRNPEMLKQWEYCGQPKVVVKAPDEETLIALLAHAKMLGLTVSLIQDAGRTQIAPGSQTVLGIGPGPADLIDKVTGHLKLY,soluble
9,MSLMPLLDKLREQYGVGPVCSELHIAPSTYYHCQQQRHHPDKRSARAQHDDWLKREIQRVYDENHQVYGVRKVWRQLLREGIRVARCTVARLMAVMGLAGVLRGKKVRTTISRKAVAAGDRVNRQFVAERPDQLWVADFTYVSTWQGFVYVAFIIDVFAGYIVGWRVSSSMETTFVLDALEQALWARRPSGTIHHSDKGSQYVSLAYTERLKEAGLLASTGSTGDSYDNAMAESINGLYKAEVIHRKSWKNRAEVELATLTWVDWYNNRRLLGRLGHAPPAEAEKAYYASIGNDDLAAEGHHHHHH,not soluble
10,MSYFGGLISTLFERRYQQALSDEVDSRTTCELCEALLSSHGEVSGVTLARNLLDRYAAMTEAEKTALFGFMAHDLEIDPDAVTHTLEAYKNNPGKDTYRAFAAACEPRRQELARRLNQVPGATGQLVQMRKDLLRMMKDHPDLEPVDVDFKHLFSSWFNRGFLVLRPIDWSSPANILEQIIAYEAVHEIDSWDELRRRLQPSDRRCFGFFHPSMADEPLIFVEVALTEGVPSSVQDLLADERDVITAQDADTAVFYSISNCQSGLAGISFGNSLIKQVVADLAKDLPGLTTFVTLSPIPGLNRWLQDADIDALKDADTQALAAHYLLEAKRSDGMPFDPVARFHLGNGALVHAVHAEADVSPNGRKQSNGAMVNYLYDLSQISQNHEKFVGDKIVVASTTVKALSGSVTTSLGTAAAAAALEHHHHHH,soluble
11,MSLFLMDQYIKVDITVEENEQERIMAELLAIGFDSFAEHANMLEAYVEKSAFSEADLKEVLHEVNPAYTYTFAEMPNINWNEEWEKNFDPLVIANQCYVRASFHAERPEFQYEVVINPKMSFGTGHHAEGHHHHHH,soluble
12,MTHRSSRLEVGPVARGDVATIEHAELPPGWVLTTSGRISGVTEPGELSVHYPFPIADLVALDDALTYSSRACQVRFAIYLGDLGRDTAARAREILGKVPTPDNAVLLAVSPNQCAIEVVYGSQVRGRGAESAAPLGVAAASSAFEQGELVDGLISAIRVLSAGIAPG,soluble
13,MYDWFSEMRKKDPVYYDGNIWQVFSYRYTKEVLNNFSKFSSDLTGYHERLEDLRNGKIRFDIPTRYTMLTSDPPLHDELRSMSADIFSPQKLQTLETFIRETTRSLLDSIDPREDDIVKKLAVPLPIIVISKILGLPIEDKEKFKEWSDLVAFRLGKPGEIFELGKKYLELIGYVKDHLNSGTEVVSRVVNSNLSDIEKLGYIILLLIAGNETTTNLISNSVIDFTRFNLWQRIREENLYLKAIEEALRYSPPVMRTVRKTKERVKLGDQTIEEGEYVRVWIASANRDEEVFHDGEKFIPDRNPNPHLSFGSGIHLCLGAPLARLEARIAIEEFSKRFRHIEILDTEKVPNEVLNGYKRLVVRLKSNE,soluble
14,MLMRPLDLTEKRGKKVTIYFEGKELEAYEGEKLPVALLANEIYWLTTSNEGRKRGAFTFGPVPMTVNGVKGLEARRIKVKDGMKIERQGYYDFHEEPVVEPGEIERVVVDVAIIGGGPAGIGAALELQQYLTVALIEERGWLGGDMWLKGIKQEGFNKDSRKVVEELVGKLNENTKIYLETSALGVFDKGEYFLVPVVRGDKLIEILAKRVVLATGAIDSTMLFENNDMPGVFRRDFALEVMNVWEVAPGRKVAVTGSKADEVIQELERWGIDYVHIPNVKRVEGNEKVERVIDMNNHEYKVDALIFADGRRPDINPITQAGGKLRFRRGYYSPVLDEYHRIKDGIYVAGSAVSIKPHYANYLEGKLVGAYILKEFGYDAQPCIYEEKLREYEPESLSIPRIPLDKFNLEDVQICGCDVSLKKVDEVIRKGITDLQIIKRLTHLAMGFCQGRYCLFNGAVVVSQRTGKKLSEIDLPVARSPIKNVKMGILARR,soluble
15,MVEVLTLGVIQTTLDSTAAWNTDSGEPKISASEDSRAWYEIRRAMRALADHEDQPRIILLPELALPRTRLDDFERLVCSMNALAIVGVDYRLNHRTKSAKNEGLVLVPRNFWKRTPSRYAARVWFGKRDPAPAEASGFKEYMPPWAFHSDPNVYVFDAGPYGRIGVSICYDFMDIERALLYRGRVHHLFVIAYNRDVKLFESLAVSLSRTAFCNVVVCNTGYFGGSLVVSPYYEAFKRIGYSVDGGKVFTAQCVPLPVRDLDAAIHGFDTKPNATYKHLPPGFTTSMDHTAALPEGPSAVAIPLFTSDLEHHHHHH,not soluble
16,MHNKWYWTFKHILWGPILRVYNRPEIHGLENIPDKGSAILASNHQAVMDSFYLPLMSPRQITFPAKQEYFTTPGFVGSLQRWFFTAVGQVPIDRTSKSASDDLLKTARMVLDRGDLFGIYPEGTRSPDGRIYRGKTGMARIALDTNVAVVPIAMIGSRDANPIGTWIPRPHKVVIKVGEAISPRSFVSDAGYDPDSYEAMRFFTDHVMKVLADLTGQQYVDLYAADVKKSLAAGKGYPEGA,not soluble
17,MQSLTTALENLLRHLSQEIPATPGIRVIDIPFPLKDAFDALSWLASQQTYPQFYWQQRNGDEEAVVLGAITRFTSLDQAQRFLRQHPEHADLRIWGLNAFDPSQGNLLLPRLEWRRCGGKATLRLTLFSESSLQHDAIQAKEFIATLVSIKPLPGLHLTTTREQHWPDKTGWTQLIELATKTIAEGELDKVVLARATDLHFASPVNAAAMMAASRRLNLNCYHFYMAFDGENAFLGSSPERLWRRRDKALRTEALAGTVANNPDDKQAQQLGEWLMADDKNQRENMLVVEDICQRLQADTQTLDVLPPQVLRLRKVQHLRRCIWTSLNKADDVICLHQLQPTAAVAGLPRDLARQFIARHEPFTREWYAGSAGYLSLQQSEFCVSLRSAKISGNVVRLYAGAGIVRGSDPEQEWQEIDNKAAGLRTLLQME,soluble
18,SDERDVLWVGVCAMPKKVESEPMQRILAALTSSRVAHFEPMIFDAKTLFERPIHKWPVCDALIAFHSEGFPLERAIAYAELRRPYCLNGLREQRMLLDRSKVYEVLARERVPVPRHIVVRHDGADVGRTDTRFVEHDDYIEYCGERLFKPFVEKPIDAEDHRVCIYYARPLYGRRRLFRKTANQSSVFEPGWRRVRREGAFIYEEFIPSEHQSDIKVYAVGPEYAYAERRKSPVVDGIVERNAHGKELRFPVELSTAERCVAATITAAFRQFVCGFDLIRHADGNAFYVNDVNGFSFVKGSQSYYESCGRILAEHLARECARSAAVDGE,soluble
19,MLLPEPTTLRHVLIDGTIPQVATDEALIKDFGHPYEYAFNRTPQGYQVRWNTPKGVYILDAVVAAHIDPDDQWYWHQQFAFAIPELAEGPHHSSEELLTAARTLNGNGPAYLVPTEDGHTDVIVATPSFPQLPLAHALTLGLGQARNNNLTDDEIRRAIIAFAAQNDYSVAEDGLILCVRSDNGEQAHVDIARLKVRDLQSTTPQLRLTDVLADATFVAAEHQLLLNGRFPDARATTNDDCSVVTLTTPTGQTLRARALLIATLRGETLQWSWADPAVCDLPGAKAALGVKNFAIDNGLGMLLGQVDAATALSQRLYDAAKPVSRFWTDVRVPLSDGSTAIMLVDASELRLPPPSHAAVFATLHETVPHGRDIRRALSYYGAFRRITIDDVDYRRVRVHAPSAPIQVSMDACGRVCSIV,not soluble
20,MGSDKIHHHHHHLIKNILIMAANGQISRLIENQILNDDQFANVHLTLFLRHQSRLAQLAKNPRVTLIEGSLDRLDDVKKAMVDQDLVFIGVVDHSKGSQQTQNVIAGMKAGHVQRVIYTNVLGIYDEVPGTFGKWNKATIGNGLPSALKSDQLLEQSGLDYTTLRLPWLNDRDVKYQLTHKDETYVGVSGSRKSVADVVLKIIADPDYLKNDSVGIADPDTAGSDRLVY,not soluble
21,MATIGLDRLYYAKITENENGEETYATPVPLAKAITAELSVELAEATLYADDGAAEVVKEFQSGTLTLGVADIGVDAAEVLTGATLDDNKVLISTSEDGGAPVAIGFRAKKANGKYRYFWLYRVKFGIPATNLQTKGDSITFSTPTIEGTVMRRNKPDGQGKHPWKAEVSEDDPGVLPETIAGWYTEVYEPVFAVGGGS,not soluble
